Here are results for six molecules from patent publication US20260015399A1 (Boehringer Ingelheim, published 2026).

Sequences and labels used below:
T1: human NPY2 receptor (human, UniProt P49146 1-381)
T1 construct: whole, on cells; also called hNPY2-R; hNPY2R
T1 sequence (looked up): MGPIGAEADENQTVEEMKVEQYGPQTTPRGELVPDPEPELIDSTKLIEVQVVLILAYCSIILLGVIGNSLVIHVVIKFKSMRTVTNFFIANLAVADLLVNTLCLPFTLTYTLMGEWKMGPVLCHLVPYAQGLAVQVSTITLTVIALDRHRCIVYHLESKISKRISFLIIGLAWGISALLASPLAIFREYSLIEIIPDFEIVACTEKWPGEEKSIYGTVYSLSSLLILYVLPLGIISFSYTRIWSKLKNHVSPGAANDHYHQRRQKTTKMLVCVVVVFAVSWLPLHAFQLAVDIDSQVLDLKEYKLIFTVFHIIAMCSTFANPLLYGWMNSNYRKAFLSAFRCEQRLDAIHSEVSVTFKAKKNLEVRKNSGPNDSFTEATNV

B1: Compound 180 (peptide)
peptide: Isovaleryl-APEK([Ahx-γGlu-C18 diacid])PEEDATPEELQRYYVSLRHYYNWLTKQRY-NH2
SMILES: CC(C)CC(=O)N[C@@H](C)C(=O)N1CCC[C@H]1C(=O)N[C@@H](CCC(=O)O)C(=O)N[C@@H](CCCCNC(=O)CCCCCNC(=O)CC[C@H](NC(=O)CCCCCCCCCCCCCCCCC(=O)O)C(=O)O)C(=O)N1CCC[C@H]1C(=O)N[C@@H](CCC(=O)O)C(=O)N[C@@H](CCC(=O)O)C(=O)N[C@@H](CC(=O)O)C(=O)N[C@@H](C)C(=O)N[C@H](C(=O)N1CCC[C@H]1C(=O)N[C@@H](CCC(=O)O)C(=O)N[C@@H](CCC(=O)O)C(=O)N[C@@H](CC(C)C)C(=O)N[C@@H](CCC(N)=O)C(=O)N[C@@H](CCCNC(=N)N)C(=O)N[C@@H](Cc1ccc(O)cc1)C(=O)N[C@@H](Cc1ccc(O)cc1)C(=O)N[C@H](C(=O)N[C@@H](CO)C(=O)N[C@@H](CC(C)C)C(=O)N[C@@H](CCCNC(=N)N)C(=O)N[C@@H](Cc1c[nH]cn1)C(=O)N[C@@H](Cc1ccc(O)cc1)C(=O)N[C@@H](Cc1ccc(O)cc1)C(=O)N[C@@H](CC(N)=O)C(=O)N[C@@H](Cc1c[nH]c2ccccc12)C(=O)N[C@@H](CC(C)C)C(=O)N[C@H](C(=O)N[C@@H](CCCCN)C(=O)N[C@@H](CCC(N)=O)C(=O)N[C@@H](CCCNC(=N)N)C(=O)N[C@@H](Cc1ccc(O)cc1)C(N)=O)[C@@H](C)O)C(C)C)[C@@H](C)O
B2: Compound 190 (peptide)
peptide: Isovaleryl-APAK([Ahx-γGlu-C18 diacid])PEEDATPEELQRYYISLRHYYNWLTRQRY-NH2
SMILES: CC[C@H](C)[C@H](NC(=O)[C@H](Cc1ccc(O)cc1)NC(=O)[C@H](Cc1ccc(O)cc1)NC(=O)[C@H](CCCNC(=N)N)NC(=O)[C@H](CCC(N)=O)NC(=O)[C@H](CC(C)C)NC(=O)[C@H](CCC(=O)O)NC(=O)[C@H](CCC(=O)O)NC(=O)[C@@H]1CCCN1C(=O)[C@@H](NC(=O)[C@H](C)NC(=O)[C@H](CC(=O)O)NC(=O)[C@H](CCC(=O)O)NC(=O)[C@H](CCC(=O)O)NC(=O)[C@@H]1CCCN1C(=O)[C@H](CCCCNC(=O)CCCCCNC(=O)CC[C@H](NC(=O)CCCCCCCCCCCCCCCCC(=O)O)C(=O)O)NC(=O)[C@H](C)NC(=O)[C@@H]1CCCN1C(=O)[C@H](C)NC(=O)CC(C)C)[C@@H](C)O)C(=O)N[C@@H](CO)C(=O)N[C@@H](CC(C)C)C(=O)N[C@@H](CCCNC(=N)N)C(=O)N[C@@H](Cc1c[nH]cn1)C(=O)N[C@@H](Cc1ccc(O)cc1)C(=O)N[C@@H](Cc1ccc(O)cc1)C(=O)N[C@@H](CC(N)=O)C(=O)N[C@@H](Cc1c[nH]c2ccccc12)C(=O)N[C@@H](CC(C)C)C(=O)N[C@H](C(=O)N[C@@H](CCCNC(=N)N)C(=O)N[C@@H](CCC(N)=O)C(=O)N[C@@H](CCCNC(=N)N)C(=O)N[C@@H](Cc1ccc(O)cc1)C(N)=O)[C@@H](C)O
B3: Compound 187 (peptide)
peptide: Isovaleryl-APEK([Ahx-γGlu-C18 diacid])PEEDATPEEPQRYYVSLRHYYNWLTRQRY-NH2
SMILES: CC(C)CC(=O)N[C@@H](C)C(=O)N1CCC[C@H]1C(=O)N[C@@H](CCC(=O)O)C(=O)N[C@@H](CCCCNC(=O)CCCCCNC(=O)CC[C@H](NC(=O)CCCCCCCCCCCCCCCCC(=O)O)C(=O)O)C(=O)N1CCC[C@H]1C(=O)N[C@@H](CCC(=O)O)C(=O)N[C@@H](CCC(=O)O)C(=O)N[C@@H](CC(=O)O)C(=O)N[C@@H](C)C(=O)N[C@H](C(=O)N1CCC[C@H]1C(=O)N[C@@H](CCC(=O)O)C(=O)N[C@@H](CCC(=O)O)C(=O)N1CCC[C@H]1C(=O)N[C@@H](CCC(N)=O)C(=O)N[C@@H](CCCNC(=N)N)C(=O)N[C@@H](Cc1ccc(O)cc1)C(=O)N[C@@H](Cc1ccc(O)cc1)C(=O)N[C@H](C(=O)N[C@@H](CO)C(=O)N[C@@H](CC(C)C)C(=O)N[C@@H](CCCNC(=N)N)C(=O)N[C@@H](Cc1c[nH]cn1)C(=O)N[C@@H](Cc1ccc(O)cc1)C(=O)N[C@@H](Cc1ccc(O)cc1)C(=O)N[C@@H](CC(N)=O)C(=O)N[C@@H](Cc1c[nH]c2ccccc12)C(=O)N[C@@H](CC(C)C)C(=O)N[C@H](C(=O)N[C@@H](CCCNC(=N)N)C(=O)N[C@@H](CCC(N)=O)C(=O)N[C@@H](CCCNC(=N)N)C(=O)N[C@@H](Cc1ccc(O)cc1)C(N)=O)[C@@H](C)O)C(C)C)[C@@H](C)O
B4: Compound 185 (peptide)
peptide: Isovaleryl-APAK([Ahx-γGlu-C18 diacid])PEEDASEEELQRYYVSLRHYYNWLTRQRY-NH2
SMILES: CC(C)CC(=O)N[C@@H](C)C(=O)N1CCC[C@H]1C(=O)N[C@@H](C)C(=O)N[C@@H](CCCCNC(=O)CCCCCNC(=O)CC[C@H](NC(=O)CCCCCCCCCCCCCCCCC(=O)O)C(=O)O)C(=O)N1CCC[C@H]1C(=O)N[C@@H](CCC(=O)O)C(=O)N[C@@H](CCC(=O)O)C(=O)N[C@@H](CC(=O)O)C(=O)N[C@@H](C)C(=O)N[C@@H](CO)C(=O)N[C@@H](CCC(=O)O)C(=O)N[C@@H](CCC(=O)O)C(=O)N[C@@H](CCC(=O)O)C(=O)N[C@@H](CC(C)C)C(=O)N[C@@H](CCC(N)=O)C(=O)N[C@@H](CCCNC(=N)N)C(=O)N[C@@H](Cc1ccc(O)cc1)C(=O)N[C@@H](Cc1ccc(O)cc1)C(=O)N[C@H](C(=O)N[C@@H](CO)C(=O)N[C@@H](CC(C)C)C(=O)N[C@@H](CCCNC(=N)N)C(=O)N[C@@H](Cc1c[nH]cn1)C(=O)N[C@@H](Cc1ccc(O)cc1)C(=O)N[C@@H](Cc1ccc(O)cc1)C(=O)N[C@@H](CC(N)=O)C(=O)N[C@@H](Cc1c[nH]c2ccccc12)C(=O)N[C@@H](CC(C)C)C(=O)N[C@H](C(=O)N[C@@H](CCCNC(=N)N)C(=O)N[C@@H](CCC(N)=O)C(=O)N[C@@H](CCCNC(=N)N)C(=O)N[C@@H](Cc1ccc(O)cc1)C(N)=O)[C@@H](C)O)C(C)C
B5: Compound 181 (peptide)
peptide: Isovaleryl-APAK([Ahx-γGlu-C18 diacid])PEADAEPEEIQRYYVALRHYYNWLTRQRY-NH2
SMILES: CC[C@H](C)[C@H](NC(=O)[C@H](CCC(=O)O)NC(=O)[C@H](CCC(=O)O)NC(=O)[C@@H]1CCCN1C(=O)[C@H](CCC(=O)O)NC(=O)[C@H](C)NC(=O)[C@H](CC(=O)O)NC(=O)[C@H](C)NC(=O)[C@H](CCC(=O)O)NC(=O)[C@@H]1CCCN1C(=O)[C@H](CCCCNC(=O)CCCCCNC(=O)CC[C@H](NC(=O)CCCCCCCCCCCCCCCCC(=O)O)C(=O)O)NC(=O)[C@H](C)NC(=O)[C@@H]1CCCN1C(=O)[C@H](C)NC(=O)CC(C)C)C(=O)N[C@@H](CCC(N)=O)C(=O)N[C@@H](CCCNC(=N)N)C(=O)N[C@@H](Cc1ccc(O)cc1)C(=O)N[C@@H](Cc1ccc(O)cc1)C(=O)N[C@H](C(=O)N[C@@H](C)C(=O)N[C@@H](CC(C)C)C(=O)N[C@@H](CCCNC(=N)N)C(=O)N[C@@H](Cc1c[nH]cn1)C(=O)N[C@@H](Cc1ccc(O)cc1)C(=O)N[C@@H](Cc1ccc(O)cc1)C(=O)N[C@@H](CC(N)=O)C(=O)N[C@@H](Cc1c[nH]c2ccccc12)C(=O)N[C@@H](CC(C)C)C(=O)N[C@H](C(=O)N[C@@H](CCCNC(=N)N)C(=O)N[C@@H](CCC(N)=O)C(=O)N[C@@H](CCCNC(=N)N)C(=O)N[C@@H](Cc1ccc(O)cc1)C(N)=O)[C@@H](C)O)C(C)C
B6: Compound 188 (peptide)
peptide: Isovaleryl-APEK([Ahx-γGlu-C18 diacid])PEEDATPEELQRYYVSLRHYYNWLQRQRY-NH2
SMILES: CC(C)CC(=O)N[C@@H](C)C(=O)N1CCC[C@H]1C(=O)N[C@@H](CCC(=O)O)C(=O)N[C@@H](CCCCNC(=O)CCCCCNC(=O)CC[C@H](NC(=O)CCCCCCCCCCCCCCCCC(=O)O)C(=O)O)C(=O)N1CCC[C@H]1C(=O)N[C@@H](CCC(=O)O)C(=O)N[C@@H](CCC(=O)O)C(=O)N[C@@H](CC(=O)O)C(=O)N[C@@H](C)C(=O)N[C@H](C(=O)N1CCC[C@H]1C(=O)N[C@@H](CCC(=O)O)C(=O)N[C@@H](CCC(=O)O)C(=O)N[C@@H](CC(C)C)C(=O)N[C@@H](CCC(N)=O)C(=O)N[C@@H](CCCNC(=N)N)C(=O)N[C@@H](Cc1ccc(O)cc1)C(=O)N[C@@H](Cc1ccc(O)cc1)C(=O)N[C@H](C(=O)N[C@@H](CO)C(=O)N[C@@H](CC(C)C)C(=O)N[C@@H](CCCNC(=N)N)C(=O)N[C@@H](Cc1c[nH]cn1)C(=O)N[C@@H](Cc1ccc(O)cc1)C(=O)N[C@@H](Cc1ccc(O)cc1)C(=O)N[C@@H](CC(N)=O)C(=O)N[C@@H](Cc1c[nH]c2ccccc12)C(=O)N[C@@H](CC(C)C)C(=O)N[C@@H](CCC(N)=O)C(=O)N[C@@H](CCCNC(=N)N)C(=O)N[C@@H](CCC(N)=O)C(=O)N[C@@H](CCCNC(=N)N)C(=O)N[C@@H](Cc1ccc(O)cc1)C(N)=O)C(C)C)[C@@H](C)O

*1 amine or outer side, *2 acyl side, *3 side chain or, on linkers, in order; H or OH if unused. Side-chain parts run from the residue outwards. The star is where a group is joined. C18 diacid = O=C(O)CCCCCCCCCCCCCCCCC(=O)*; γGlu = O=C(O)[C@H](CCC(=O)[*:2])N[*:1]; Isovaleryl = CC(C)CC(=O)*; Ahx = NCCCCCC(=O)O

The target in the assay is T1, human NPY2 receptor. The experiment in a line: RLB: displacement of 125I-PYY(1-36) from hNPY2R membranes. A general note: Loss of bound radioactivity is the signal in a displacement assay; it reports binding, not function.
For B1, the Ki (as a rule, the equilibrium dissociation constant of an inhibitor or competing ligand from its target) turned out to be 15.1 nM.

With B2, the Ki is 1.95 nM.

In turn, B3 gave a Ki of 15.3 nM.

B4: the Ki worked out at 2.06 nM.

On to B5, for which affinity was put at a Ki of 1.33 nM.

The molecule B6 registered a Ki of 5.46 nM.
